Results taken from the supplement of paper PMC10724198.
± gives the standard deviation of the averaged measurements.

Tested on: Saccharomyces cerevisiae
Test: protein stability index of tFT-peptide fusion (C-terminal peptide) (PSI (0-1 scale)); higher = more stable (slower turnover)
Details: genetic background: wild type; temperature: 30 C
Method: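 Multiplexed protein stability (MPS) profiling in S. cerevisiae. Random 12-aa peptides (tFT-X12 library) are fused to the C-terminus of a sfGFP-mCherry tandem fluorescent timer, after mCherry and a GGGS linker. Cells are FACS-sorted into 8 mCherry/sfGFP bins and deep-sequenced. The protein stability index (PSI) is the read-weighted bin average, scaled from 0 (unstable) to 1 (stable). Only peptides with >10 reads are reported; cells were grown at 30 °C in SC-His with glucose.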
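Further: PSI is a weighted mean of sequencing reads over stability bins, variants kept only with over 10 reads, mCherry proximal and sfGFP distal, peptide attached via GGGS linker.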

Sequence | protein stability index
GCDELGGRRFGR | 0.7207 ± 0.0051
GCFDLNPDLFQG | 0.688 ± 0.022
GCFLIANMCLLG | 0.665 ± 0.0035
GCLFSVLQSPSV | 0.721 ± 0.02
GCLSPSTPLWFP | 0.71454 ± 0.00037
GCLSRLCKGKVM | 0.599 ± 0.033
GCRCSSGLGGFW | 0.649 ± 0.11
GCVPGVGRDVVV | 0.719 ± 0.019
GCWHFWQFFCHY | 0.678 ± 0.024
GDHGSYAGPALL | 0.673 ± 0.047
GDITEVDISKHI | 0.75 ± 0.051
GDLGPADRQPAG | 0.639 ± 0.027
GDLYWLRNAMSL | 0.731 ± 0.012
GDSPSGKPAERT | 0.661 ± 0.065
GDTQESSHIRIY | 0.669 ± 0.051
GEAGICAGTAGG | 0.693 ± 0.041
GEALSFIFVSPP | 0.722 ± 0.033
GEAVAGRRQESP | 0.695 ± 0.073
GEDFRVLVFVRL | 0.556 ± 0.0099
GEFARSTRLAWV | 0.682 ± 0.027
GEFISRSSRIEI | 0.64 ± 0.042
GEGGGLRARQKP | 0.673 ± 0.057
GEGHGGMLDVVM | 0.686 ± 0.066
GELGGRAWVERG | 0.683 ± 0.044
GELGGRSWVERG | 0.648 ± 0.099

Sequence | protein stability index
GELPGLFRCCLM | 0.492 ± 0.072
GENLGGDVFNIG | 0.73 ± 0.0031
GENPEPRHGRGN | 0.698 ± 0.022
GEQGAPLSIRYS | 0.622 ± 0.021
GEQGVLARSDRI | 0.589 ± 0.025
GEQSYGGHSVQT | 0.642 ± 0.054
GERSGVSIRHEG | 0.726 ± 0.016
GESIIQTCLNSI | 0.845 ± 0.017
GESLSLVRIWRK | 0.625 ± 0.13
GESRPPLASPHP | 0.708 ± 0.0087
GETGGACGVWAG | 0.685 ± 0.066
GETQAAGAKYLG | 0.724 ± 0.019
GEYEHHKNKKRR | 0.7 ± 0.075
GFALRESWFIFV | 0.644 ± 0.018
GFAVGDQFIVPL | 0.687 ± 0.048
GFCLIVGVVPAL | 0.5179 ± 0.0024
GFHSVVMTFLRY | 0.63 ± 0.017
GFILTVAPNLEH | 0.648 ± 0.031
GFKMSMGCEQSS | 0.722 ± 0.076
GFLCARGAHSMT | 0.704 ± 0.013
GFLCDTVRLGCA | 0.702 ± 0.058
GFLCLISSLGFM | 0.687 ± 0.051
GFLSYWYISFPF | 0.641 ± 0.014
GFPRSPALCSQP | 0.689 ± 0.017
GFRDGVASLFVR | 0.757 ± 0.026

Sequence | protein stability index
GFRWGYIGGWRW | 0.741 ± 0.01
GFSFSSFLRGLF | 0.625 ± 0.017
GFTAERWRVKGR | 0.674 ± 0.058
GFVAGGVCSRPL | 0.715 ± 0.076
GGAAWRRGVGGV | 0.66 ± 0.025
GGAGAGHDPRRN | 0.705 ± 0.019
GGAGGRRRIGGG | 0.622 ± 0.048
GGARGEDRRAYV | 0.668 ± 0.054
GGCCLWVGFQGG | 0.703 ± 0.012
GGCGGGCGACVV | 0.701 ± 0.025
GGCGGRGGVVVR | 0.687 ± 0.02
GGCVCGPRVLGV | 0.67 ± 0.031
GGCVGVLGGWGL | 0.694 ± 0.0083
GGCVVKVRAQGP | 0.636 ± 0.01
GGEGPKGDRGRA | 0.649 ± 0.018
GGEVFGGRCSAV | 0.734 ± 0.12
GGFGSCVGHVLG | 0.735 ± 0.077
GGFRWLGGSAPA | 0.727 ± 0.072
GGFVISGDVTVG | 0.688 ± 0.038
GGFVVGGGGWLG | 0.733 ± 0.033
GGGAGGRQGCGG | 0.771 ± 0.027
GGGAGKGPQTRG | 0.676 ± 0.062
GGGAGVRKWRKG | 0.703 ± 0.058
GGGAGWGWGGRM | 0.673 ± 0.017
GGGAPADSGPGG | 0.628 ± 0.036

Sequence | protein stability index
GGGARCGLGGRM | 0.7 ± 0.053
GGGDRDGGTASG | 0.698 ± 0.073
GGGFLGGTVAAV | 0.7 ± 0.032
GGGGAGGGGGRV | 0.676 ± 0.038
GGGGAGGWGAVG | 0.67 ± 0.036
GGGGFQVAVGCR | 0.714
GGGGGGGAWKGV | 0.69 ± 0.02
GGGGGGGGGAGG | 0.674 ± 0.023
GGGGGGPGGVLK | 0.706 ± 0.092
GGGGGGRAGVWG | 0.687 ± 0.028
GGGGGGSRVWSA | 0.698 ± 0.083
GGGGGGVEPCFV | 0.668 ± 0.041
GGGGGKAGSHLG | 0.632 ± 0.01
GGGGGRAQEVQG | 0.717 ± 0.059
GGGGGRAYSWWV | 0.699 ± 0.014
GGGGGRGQGWYR | 0.651 ± 0.032
GGGGGWAGENTR | 0.715 ± 0.075
GGGGLREGGRWE | 0.743 ± 0.038
GGGGRVRDALGM | 0.696 ± 0.048
GGGGSVGGGALR | 0.651 ± 0.0088
GGGLGRVWVKLG | 0.716 ± 0.08
GGGLRGVGGLGR | 0.602 ± 0.044
GGGMCGRSGGRR | 0.706 ± 0.011
GGGRFRRDRTYE | 0.712 ± 0.028
GGGRWSAGVVEG | 0.829 ± 0.1

Sequence | protein stability index
GGGSGGVVGGIS | 0.674 ± 0.018
GGGSITTFIGDE | 0.695 ± 0.018
GGGSRLWGGGRV | 0.728 ± 0.028
GGGVATGGGGGG | 0.599 ± 0.029
GGGVGGPGGVLK | 0.675 ± 0.075
GGGVGWWVSYVG | 0.673 ± 0.012
GGGVRLMSIHRG | 0.662 ± 0.012
GGGVSFWLGVVA | 0.6211 ± 0.0026
GGGWCESRGDGA | 0.655 ± 0.085
GGGWGSRGVCLG | 0.65 ± 0.11
GGGWRGRRVADF | 0.701 ± 0.043
GGHGRREEKGQR | 0.6845 ± 0.0058
GGHLTMMFGRLF | 0.713 ± 0.019
GGKWGVAGGGPW | 0.738 ± 0.074
GGLGLVESVFVI | 0.67 ± 0.052
GGLGVAGAGVVC | 0.655 ± 0.042
GGPASSGLMDGY | 0.698 ± 0.0062
GGPGGGGVSDGM | 0.804 ± 0.14
GGPIQAGLSFPG | 0.685 ± 0.025
GGPRGPPMLIWE | 0.738 ± 0.037
GGRFGMWRGGQA | 0.7245 ± 0.0064
GGRGAVSGIVRK | 0.613 ± 0.014
GGRGRGARPGGR | 0.647 ± 0.027
GGRGSRWAGPRC | 0.669 ± 0.038
GGRPIRNTTREG | 0.655 ± 0.022

Sequence | protein stability index
GGRREGRGFNDG | 0.676 ± 0.025
GGRRYSRPGQKH | 0.661 ± 0.018
GGRSSGRLMGKE | 0.712 ± 0.013
GGRTRPGGLSRP | 0.678 ± 0.035
GGSFRLLAVVFP | 0.635 ± 0.044
GGSRRANRQMRK | 0.7148 ± 0.0045
GGSRRRAVGAGV | 0.709 ± 0.057
GGSSEKVLCIWR | 0.7246 ± 0.0014
GGTCWEGEVVDV | 0.641 ± 0.029
GGTKGKAGGEAA | 0.672 ± 0.043
GGVFREEGAAER | 0.693 ± 0.021
GGVGSMITWRVG | 0.689 ± 0.082
GGVGWWVGVVWG | 0.624 ± 0.071
GGVLDGVGVRMG | 0.69 ± 0.054
GGVVVGRGVCVF | 0.626 ± 0.032
GGVVVRGRASAR | 0.717 ± 0.02
GGWCWGWGPGSG | 0.687 ± 0.056
GGWGGVCGACVV | 0.702 ± 0.035
GGWGRKCGGSGG | 0.711 ± 0.018
GGWGWEGRGGSG | 0.677 ± 0.014
GGWPLSPSFGWG | 0.571
